According to doi:10.1101/2024.09.12.612748, “Analysis of polyclonal and monoclonal antibody to the influenza virus nucleoprotein in different oligomeric states” (bioRxiv, 2024):

Key:
[1] = target: T1, recombinant NP of influenza A/PR/8/34 (H1N1) purified from bacteria (Influenza A virus (strain A/Puerto …, UniProt P03466)); experiment: immunoblot; conditions: both partners purified
T1 construct: source: E. coli Rosetta 2 (DE3), purified (His GraviTrap TALON)

[2] = target: T2, NP in H1N1 viral lysate (A/Puerto Rico/8/34) (Influenza A virus (strain A/Puerto …, UniProt P03466)); experiment: immunoblot; conditions: one partner purified
T2 construct: also called viral NP; NP from lysed influenza virus

[3] = target: T3, recombinant nucleoprotein (NP) from influenza A/Brisbane/10/2007 (H3N2) (Influenza A virus A/Brisbane/10/2007 …); experiment: BLI; Octet Red 96; […] (AMC) […] (6.25–200 nM), 1X PBS, association 300 s, dissociation 3,600 s, global 1:1 fit; conditions: both partners purified
T3 construct: also called rNP; rNP-A

B1: anti-NP mouse monoclonal antibody HB65 (antibody, V domains shown)
VH: EVKLVESGGALVNPGGSLKLSCAASGFIFSSYAMSWIRQTPEKRLEWVASTSGGGTTYYLDSVRGRFTISRDNARRILYLQMTSLRSEDTAIYFCGRDGNWFTSWGQGTLVTVSI
VL: NIVMTQSPKSMSMSVGERVTLTCKASENVVTYVSWYQQKPEQSPKLLIYGASNRYTGVPDRFTGSGSATDFTLTISSVQAEDLADYHCGQGYSYPYTFGGGTKLEIK
notes: also called mAb HB65; IgG HB65; copies: 2 + 2
B1 was tested, and the binding result [1] was “binds”, the binding result [2] was “binds” and the Kd [3] was 0.12 ± 0.021 µM.
